Values belong to the binder of their own block, whether it stands above or below them. Starred links: 1 amine or outer side, 2 acyl side, 3 side chain; linkers in the order of their positions; H or OH if unused. Positions of bridges follow the written chain, without caps; N, C: chain ends. Non-standard residues stand in square brackets, D forms with d. Primed or numbered codes have the meaning given here. PyrS2″ = (S)-3-amino-1-((pent-4-en-1-yloxy)carbonyl)pyrrolidine-3-carboxylic acid (stapling residue), C=CCCCOC(=O)N1CC[C@@](N[*:1])(C(=O)[*:2])C1; B5(5) = 2,2-bis(4-pentenyl)glycine, 2-amino-2-(pent-4-en-1-yl)hept-6-enoic acid (stitching residue), C=CCCCC(CCCC=C)(N[*:1])C(=O)[*:2]; B5(6) = 2-amino-2-(pent-4-en-1-yl)hept-6-enoic acid (bis(4-pentenyl)glycine), stitching residue, C=CCCCC(CCCC=C)(N[*:1])C(=O)[*:2]; PyrS2 = (S)-3-amino-1-((pent-4-en-1-yloxy)carbonyl)pyrrolidine-3-carboxylic acid, C=CCCCOC(=O)N1CC[C@@](N[*:1])(C(=O)[*:2])C1; B5(19) = 2-amino-2-(pent-4-en-1-yl)hept-6-enoic acid (bis(4-pentenyl)glycine), C=CCCCC(CCCC=C)(N[*:1])C(=O)[*:2]; B5 = 2-amino-2-(pent-4-en-1-yl)hept-6-enoic acid, C=CCCCC(CCCC=C)(N[*:1])C(=O)[*:2]; Phe(3-CF3) = N[C@@H](Cc1cccc(C(F)(F)F)c1)C(=O)O; Phe(3-OMe) = COc1cccc(C[C@H](N)C(=O)O)c1; Bta = N[C@@H](Cc1csc2ccccc12)C(=O)O; αAllylPro = C=CC[C@@]1(C(=O)O)CCCN1; tBuAla = CC(C)(C)C[C@H](N)C(=O)O; S8 = C=CCCCCCC[C@](C)(N)C(=O)O
Experiments:
[1] = biological target: T1, beta-catenin in DLD1 TCF/LEF luciferase reporter cells (Homo sapiens (Human), UniProt P35222 1-781); assay: cell-based or functional assay
T1 sequence: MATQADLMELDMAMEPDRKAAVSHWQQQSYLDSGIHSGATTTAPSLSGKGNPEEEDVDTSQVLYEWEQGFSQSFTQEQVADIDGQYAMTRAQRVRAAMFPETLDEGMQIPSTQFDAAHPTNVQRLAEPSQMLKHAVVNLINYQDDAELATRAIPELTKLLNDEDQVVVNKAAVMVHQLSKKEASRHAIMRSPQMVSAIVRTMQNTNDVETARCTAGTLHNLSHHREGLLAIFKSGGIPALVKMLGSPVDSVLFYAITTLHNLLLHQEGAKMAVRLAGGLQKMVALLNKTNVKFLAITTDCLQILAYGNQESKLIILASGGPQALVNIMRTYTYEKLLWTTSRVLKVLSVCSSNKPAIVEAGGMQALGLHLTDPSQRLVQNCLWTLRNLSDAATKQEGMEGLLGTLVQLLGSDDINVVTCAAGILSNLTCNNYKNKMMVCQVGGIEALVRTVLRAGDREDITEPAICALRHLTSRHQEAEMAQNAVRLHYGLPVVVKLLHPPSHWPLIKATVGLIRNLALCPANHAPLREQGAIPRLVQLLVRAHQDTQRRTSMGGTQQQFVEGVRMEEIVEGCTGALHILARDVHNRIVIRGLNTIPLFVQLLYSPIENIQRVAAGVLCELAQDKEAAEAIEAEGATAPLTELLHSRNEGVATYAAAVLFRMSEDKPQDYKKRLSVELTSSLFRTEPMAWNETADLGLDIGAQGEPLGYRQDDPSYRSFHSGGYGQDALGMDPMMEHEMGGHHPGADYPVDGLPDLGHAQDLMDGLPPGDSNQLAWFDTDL

[2] = biological target: T2, B-cat-Halo (beta-catenin HaloTag NanoBRET construct expressed in HEK293 cells) (UniProt P35222 1-781); assay: NanoBRET target engagement in HEK293 cells (B-cat-Halo / TCF4-Luc); competitor TCF4-Luc
T2 construct: Transfected together with TCF4-Luc into HEK293 cells; not shown: HaloTag
T2 sequence (looked up): T1 sequence

[3] = biological target: T3, full-length beta-Catenin (Uniprot ID P35222) (Homo sapiens (Human), UniProt P35222 1-781); assay: fluorescence polarization competition; 10 nM full-length beta-catenin + 10 nM 5FAM-TCF4(10-53) probe
T3 construct: also called bCat; B-Catenin
T3 sequence: T1 sequence
Protocol: (§1) The plate was incubated protected from light for 60 minutes at 20° C. prior to read. Reads were performed on a CLARIOstar plate reader (BMG Labtech) in duplicate, and data were fitted to a 1:1 binding model with hill slope using an in-house script. All provided concentrations are final concentrations.

[4] = biological target: T2, B-cat-Halo (beta-catenin HaloTag …); assay: NanoBRET target engagement in HEK293 cells (B-cat-Halo / TCF4-Luc); absolute IC50; competitor TCF4-Luc
[5] = biological target: B-cat-Halo (beta-catenin HaloTag fusion expressed in HEK293 cells) (UniProt P35222 1-781); assay: NanoBRET Abs IC50 in HEK293 cells; Bcat-Halo / TCF4-Luc engagement, competitor TCF4-Luc
[6] = biological target: T4, full-length beta-Catenin (Uniprot ID P35222) (Homo sapiens (Human), UniProt P35222 1-781); assay: fluorescence polarization competition; full-length beta-catenin with 5FAM-labeled TCF4 residues 10-53 probe as competitor
T4 construct: also called bCat; B-Catenin
T4 sequence: T1 sequence
Protocol: as §1

[7] = biological target: T5, B-cat-Halo (beta-catenin HaloTag NanoBRET construct expressed in HEK293 cells) (UniProt P35222 1-781, HaloTag NanoBRET 618 Ligand bound in the assay); assay: cell-based or functional assay
T5 sequence (looked up): T1 sequence

[8] = biological target: T6, full-length beta-Catenin (Uniprot ID P35222) (Homo sapiens (Human), UniProt P35222 2-781); assay: fluorescence polarization competition; full-length beta-catenin, 5FAM-TCF4(10-53) probe as competitor
T6 construct: The FP protocol names full-length beta-Catenin (Uniprot ID P35222); also called bCat; B-Catenin
T6 sequence: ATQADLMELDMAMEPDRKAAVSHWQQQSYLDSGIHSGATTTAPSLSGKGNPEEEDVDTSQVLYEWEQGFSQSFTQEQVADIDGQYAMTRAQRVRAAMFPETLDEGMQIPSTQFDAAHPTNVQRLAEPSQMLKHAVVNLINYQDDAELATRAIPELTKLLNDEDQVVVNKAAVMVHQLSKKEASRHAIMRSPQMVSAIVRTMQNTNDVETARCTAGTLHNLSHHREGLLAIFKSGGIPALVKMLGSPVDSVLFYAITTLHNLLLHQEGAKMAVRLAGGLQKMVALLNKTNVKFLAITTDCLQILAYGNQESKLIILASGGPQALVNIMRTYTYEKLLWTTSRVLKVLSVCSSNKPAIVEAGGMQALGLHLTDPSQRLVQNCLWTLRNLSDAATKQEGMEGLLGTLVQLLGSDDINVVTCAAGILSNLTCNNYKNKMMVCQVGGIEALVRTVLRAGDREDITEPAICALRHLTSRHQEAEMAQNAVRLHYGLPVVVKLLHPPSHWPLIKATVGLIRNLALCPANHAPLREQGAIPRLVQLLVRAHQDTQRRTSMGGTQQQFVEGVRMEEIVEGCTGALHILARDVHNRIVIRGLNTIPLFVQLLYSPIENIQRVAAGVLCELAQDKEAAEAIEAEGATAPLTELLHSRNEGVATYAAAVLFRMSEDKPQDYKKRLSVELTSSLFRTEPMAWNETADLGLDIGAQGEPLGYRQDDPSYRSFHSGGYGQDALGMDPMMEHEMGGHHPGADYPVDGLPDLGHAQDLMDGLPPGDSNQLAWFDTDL
Method in brief: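 Readings followed a light-protected 60-minute incubation at 20° C. Each read was done in duplicate. Curves were fit with a 1:1 binding model including hill slope, and stated concentrations are final.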

- DLD1 reporter assay Abs IC50 [1]: 10.8 µM
- IC50 [2]: 5.6 µM
- EC50 [3]: 23 nM
- NanoBRET Abs IC50 [4]: 4.9 µM
B1: I-505 (peptide)
peptide: Ac-[αAllylPro]DL[B5(6)]DEAAFQ[S8]F[Bta]Q-NH2
modifications: staple 1-4, 4-11
notes: Stapled peptide composition; also called Ac-PL3-Asp-Leu-B5-Asp-Glu-Ala-Ala-Phe-Gln-S8-Phe-BztA-Gln-NH2

- IC50 [5]: 28.4 µM
Binder: Ac-[αAllylPro]D[tBuAla][B5(5)]DTAA[Phe(3-CF3)]T[PyrS2″]F[Bta]S-NH2 (staple 1-4, 4-11) [I-1268: Ac-PL3-Asp-Npg-B5-Asp-Thr-Ala-Ala-3F3MeF-Thr-PyrS2-Phe-BztA-Ser-NH2]

- EC50 [6]: 114 nM
Binder: Ac-[αAllylPro]DI[B5]DEAA[Phe(3-OMe)]Q[S8]F[Bta]Q-NH2 (staple 1-4, 4-11, Stapled peptide composition) [I-724]

- NanoBRET Abs IC50 [7]: 32.3 µM
- IC50 [8]: 156 nM
B2: I-1811 (peptide)
peptide: Ac-[αAllylPro]DL[B5(19)]DDAAFL[PyrS2]FWQ-NH2
modifications: staple 1-4, 4-11
notes: Stapled peptide; also called Ac-PL3-Asp-Leu-B5-Asp-Asp-Ala-Ala-Phe-Leu-PyrS2-Phe-Trp-Gln-NH2

Reference: US20240116985A1 (published 2024)
